Reference: the supplement of paper PMC6757056
± gives the standard deviation of the averaged measurements.

B1: library; a variant is named by its letters at N, in order (parent)
chain: GCUGUCACCGAGAAACUGUGAAGUAUAUCUUAAACCUGGGCACUUAAAAGAUAUAUGGAGUUAGUAGUGCAACCUGCUCGGUCUGAUGAGUCCNNNNNNGGACGAAACAGC

What was measured:
cyclic di-GMP [1] = variants of: B1; assay: normalized RNA/DNA level without ligand (relative to sTRSVctl = 100) (log10 (% of sTRSVctl)); HEK293T; ligand: cyclic di-GMP (c-di-GMP-II aptamer); higher = less ribozyme self-cleavage, higher mRNA level; conditions: reporter: mCherry (pCS4076), ligand present: no
In short: (§1)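 Ribozyme switch library plasmids linked to reporters were introduced into HEK293T cells at 4 µg per 6-well well, with ligand, if any, added 1 h before. Total RNA was extracted with EDTA 72 h later, reverse-transcribed, amplified, barcoded and sequenced. RNA level was computed from RNA over DNA reads relative to a spiked-in non-cleaving sequence or the top sequences, then scaled and log-transformed. The top set was 25 sequences, values were ×100 and log10, and the cutoff was ≥100 DNA reads.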

cyclic di-GMP [2] = variants of: B1; assay: normalized RNA/DNA level with ligand (relative to sTRSVctl = 100) (log10 (% of sTRSVctl)); HEK293T; ligand: cyclic di-GMP (c-di-GMP-II aptamer); ligand concentration (+) RNA-Seq: 1 mM; higher = less ribozyme self-cleavage, higher mRNA level; conditions: reporter: mCherry (pCS4076), ligand present: yes
In short: as §1

Variant | normalized RNA/DNA level without ligand (log10) (cyclic di-GMP [1]) | normalized RNA/DNA level with ligand (log10) (cyclic di-GMP [2])
GCUGUCACCGAGAAACUGUGAAGUAUAUCUUAAACCUGGGCACUUAAAAGAUAUAUGGAGUUAGUAGUGCAACCUGCUCGGUCUGAUGAGUCCCCGUCUGGACGAAACAGC [CCGUCU] | 1.6 ± 0.061 | 1.78 ± 0.12
GCUGUCACCGAGAAACUGUGAAGUAUAUCUUAAACCUGGGCACUUAAAAGAUAUAUGGAGUUAGUAGUGCAACCUGCUCGGUCUGAUGAGUCCCCGUCAGGACGAAACAGC [CCGUCA] | 1.592 ± 0.009 | 1.79 ± 0.047
GCUGUCACCGAGAAACUGUGAAGUAUAUCUUAAACCUGGGCACUUAAAAGAUAUAUGGAGUUAGUAGUGCAACCUGCUCGGUCUGAUGAGUCCCCGUCGGGACGAAACAGC [CCGUCG] | 1.68 ± 0.0046 | 1.82 ± 0.13
GCUGUCACCGAGAAACUGUGAAGUAUAUCUUAAACCUGGGCACUUAAAAGAUAUAUGGAGUUAGUAGUGCAACCUGCUCGGUCUGAUGAGUCCGCGUGCGGACGAAACAGC [GCGUGC] | 1.68 ± 0.0027 | 1.81 ± 0.14
GCUGUCACCGAGAAACUGUGAAGUAUAUCUUAAACCUGGGCACUUAAAAGAUAUAUGGAGUUAGUAGUGCAACCUGCUCGGUCUGAUGAGUCCGCGUGGGGACGAAACAGC [GCGUGG] | 1.71 ± 0.051 | 1.78 ± 0.14
GCUGUCACCGAGAAACUGUGAAGUAUAUCUUAAACCUGGGCACUUAAAAGAUAUAUGGAGUUAGUAGUGCAACCUGCUCGGUCUGAUGAGUCCCCGUUAGGACGAAACAGC [CCGUUA] | 1.36 ± 0.096 | 1.59 ± 0.15
GCUGUCACCGAGAAACUGUGAAGUAUAUCUUAAACCUGGGCACUUAAAAGAUAUAUGGAGUUAGUAGUGCAACCUGCUCGGUCUGAUGAGUCCUCGUCAGGACGAAACAGC [UCGUCA] | 1.644 ± 0.00093 | 1.82 ± 0.11
GCUGUCACCGAGAAACUGUGAAGUAUAUCUUAAACCUGGGCACUUAAAAGAUAUAUGGAGUUAGUAGUGCAACCUGCUCGGUCUGAUGAGUCCUCGUCGGGACGAAACAGC [UCGUCG] | 1.74 ± 0.03 | 1.88 ± 0.085
GCUGUCACCGAGAAACUGUGAAGUAUAUCUUAAACCUGGGCACUUAAAAGAUAUAUGGAGUUAGUAGUGCAACCUGCUCGGUCUGAUGAGUCCUCGUCCGGACGAAACAGC [UCGUCC] | 1.794 ± 0.01 | 1.9 ± 0.081
GCUGUCACCGAGAAACUGUGAAGUAUAUCUUAAACCUGGGCACUUAAAAGAUAUAUGGAGUUAGUAGUGCAACCUGCUCGGUCUGAUGAGUCCUCGUCUGGACGAAACAGC [UCGUCU] | 1.72 ± 0.043 | 1.89 ± 0.094
GCUGUCACCGAGAAACUGUGAAGUAUAUCUUAAACCUGGGCACUUAAAAGAUAUAUGGAGUUAGUAGUGCAACCUGCUCGGUCUGAUGAGUCCACGUGCGGACGAAACAGC [ACGUGC] | 1.59 ± 0.036 | 1.8 ± 0.065
GCUGUCACCGAGAAACUGUGAAGUAUAUCUUAAACCUGGGCACUUAAAAGAUAUAUGGAGUUAGUAGUGCAACCUGCUCGGUCUGAUGAGUCCACGUCAGGACGAAACAGC [ACGUCA] | 1.61 ± 0.033 | 1.76 ± 0.13
GCUGUCACCGAGAAACUGUGAAGUAUAUCUUAAACCUGGGCACUUAAAAGAUAUAUGGAGUUAGUAGUGCAACCUGCUCGGUCUGAUGAGUCCACGUCCGGACGAAACAGC [ACGUCC] | 1.75 ± 0.042 | 1.93 ± 0.12
GCUGUCACCGAGAAACUGUGAAGUAUAUCUUAAACCUGGGCACUUAAAAGAUAUAUGGAGUUAGUAGUGCAACCUGCUCGGUCUGAUGAGUCCACGUCUGGACGAAACAGC [ACGUCU] | 1.55 ± 0.087 | 1.74 ± 0.085
GCUGUCACCGAGAAACUGUGAAGUAUAUCUUAAACCUGGGCACUUAAAAGAUAUAUGGAGUUAGUAGUGCAACCUGCUCGGUCUGAUGAGUCCACGUCGGGACGAAACAGC [ACGUCG] | 1.605 ± 0.011 | 1.81 ± 0.12
GCUGUCACCGAGAAACUGUGAAGUAUAUCUUAAACCUGGGCACUUAAAAGAUAUAUGGAGUUAGUAGUGCAACCUGCUCGGUCUGAUGAGUCCCCGUGGGGACGAAACAGC [CCGUGG] | 1.53 ± 0.061 | 1.69 ± 0.14
GCUGUCACCGAGAAACUGUGAAGUAUAUCUUAAACCUGGGCACUUAAAAGAUAUAUGGAGUUAGUAGUGCAACCUGCUCGGUCUGAUGAGUCCCCGUGAGGACGAAACAGC [CCGUGA] | 1.51 ± 0.067 | 1.7 ± 0.078
GCUGUCACCGAGAAACUGUGAAGUAUAUCUUAAACCUGGGCACUUAAAAGAUAUAUGGAGUUAGUAGUGCAACCUGCUCGGUCUGAUGAGUCCCCGUGCGGACGAAACAGC [CCGUGC] | 1.58 ± 0.036 | 1.76 ± 0.086
GCUGUCACCGAGAAACUGUGAAGUAUAUCUUAAACCUGGGCACUUAAAAGAUAUAUGGAGUUAGUAGUGCAACCUGCUCGGUCUGAUGAGUCCCCGUGUGGACGAAACAGC [CCGUGU] | 1.66 ± 0.039 | 1.86 ± 0.095
GCUGUCACCGAGAAACUGUGAAGUAUAUCUUAAACCUGGGCACUUAAAAGAUAUAUGGAGUUAGUAGUGCAACCUGCUCGGUCUGAUGAGUCCGCGUCAGGACGAAACAGC [GCGUCA] | 1.624 ± 0.0059 | 1.79 ± 0.15
GCUGUCACCGAGAAACUGUGAAGUAUAUCUUAAACCUGGGCACUUAAAAGAUAUAUGGAGUUAGUAGUGCAACCUGCUCGGUCUGAUGAGUCCGCGUCCGGACGAAACAGC [GCGUCC] | 1.63 ± 0.055 | 1.81 ± 0.047
GCUGUCACCGAGAAACUGUGAAGUAUAUCUUAAACCUGGGCACUUAAAAGAUAUAUGGAGUUAGUAGUGCAACCUGCUCGGUCUGAUGAGUCCGCGUCUGGACGAAACAGC [GCGUCU] | 1.67 ± 0.03 | 1.83 ± 0.1
GCUGUCACCGAGAAACUGUGAAGUAUAUCUUAAACCUGGGCACUUAAAAGAUAUAUGGAGUUAGUAGUGCAACCUGCUCGGUCUGAUGAGUCCUCGUGUGGACGAAACAGC [UCGUGU] | 1.617 ± 0.0058 | 1.81 ± 0.1
GCUGUCACCGAGAAACUGUGAAGUAUAUCUUAAACCUGGGCACUUAAAAGAUAUAUGGAGUUAGUAGUGCAACCUGCUCGGUCUGAUGAGUCCUCGUGGGGACGAAACAGC [UCGUGG] | 1.738 ± 0.004 | 1.89 ± 0.11
GCUGUCACCGAGAAACUGUGAAGUAUAUCUUAAACCUGGGCACUUAAAAGAUAUAUGGAGUUAGUAGUGCAACCUGCUCGGUCUGAUGAGUCCUCGUGCGGACGAAACAGC [UCGUGC] | 1.67 ± 0.017 | 1.86 ± 0.12
GCUGUCACCGAGAAACUGUGAAGUAUAUCUUAAACCUGGGCACUUAAAAGAUAUAUGGAGUUAGUAGUGCAACCUGCUCGGUCUGAUGAGUCCUCGUGAGGACGAAACAGC [UCGUGA] | 1.47 ± 0.082 | 1.73 ± 0.09
